Results as given in IntAct's records for PubMed 9881977.

B1: Early protein (Human adenovirus C serotype 5 (HAdV-5)), P03255-2 (parent)
chain: MRHIICHGGVITEEMAASLLDQLIEEVLADNLPPPSHFEPPTLHELYDLDVTAPEDPNEEAVSQIFPDSVMLAVQEGIDLLTFPPAPGSPEPPHLSRQPEQPEQRALGPVSMPNLVPEVIDLTCHEAGFPPSDDEDEEGPVSEPEPEPEPEPEPARPTRRPKMAPAILRRPTSPVSRECNSSTDSCDSGPSNTPPEIHPVVPLCPIKPVAVRVGGRRQAVECIEDLLNEPGQPLDLSCKRPRP
B2: Early protein (Human adenovirus C serotype 5 (HAdV-5)), P03255-2 (parent)
chain: B1 chain
partner: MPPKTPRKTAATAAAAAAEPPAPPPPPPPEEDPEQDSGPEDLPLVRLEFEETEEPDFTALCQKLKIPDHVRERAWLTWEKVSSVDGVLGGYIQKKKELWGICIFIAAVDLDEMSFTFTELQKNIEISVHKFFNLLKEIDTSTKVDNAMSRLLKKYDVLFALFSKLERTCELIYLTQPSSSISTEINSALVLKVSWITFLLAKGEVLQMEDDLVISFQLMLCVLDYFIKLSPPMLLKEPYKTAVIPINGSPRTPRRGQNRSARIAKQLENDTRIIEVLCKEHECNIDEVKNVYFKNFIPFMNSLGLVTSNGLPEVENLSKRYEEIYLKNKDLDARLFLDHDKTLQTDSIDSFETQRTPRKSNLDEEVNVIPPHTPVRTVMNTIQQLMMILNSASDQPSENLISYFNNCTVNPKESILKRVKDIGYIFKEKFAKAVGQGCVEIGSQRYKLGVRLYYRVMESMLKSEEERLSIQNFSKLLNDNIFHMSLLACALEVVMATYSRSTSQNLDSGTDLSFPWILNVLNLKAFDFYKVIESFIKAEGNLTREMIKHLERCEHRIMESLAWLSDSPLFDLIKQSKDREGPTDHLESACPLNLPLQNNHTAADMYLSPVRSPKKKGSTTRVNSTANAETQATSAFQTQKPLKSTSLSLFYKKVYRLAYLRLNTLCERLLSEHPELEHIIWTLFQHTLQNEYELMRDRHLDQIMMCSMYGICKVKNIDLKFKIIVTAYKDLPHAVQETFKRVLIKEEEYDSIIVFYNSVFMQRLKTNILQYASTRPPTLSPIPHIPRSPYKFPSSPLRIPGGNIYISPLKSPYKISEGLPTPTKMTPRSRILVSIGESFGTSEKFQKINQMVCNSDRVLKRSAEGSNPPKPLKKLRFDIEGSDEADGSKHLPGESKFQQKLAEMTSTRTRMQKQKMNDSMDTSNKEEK

Variants of: B1
Details: with ep300_human EP300, Q09472
ep300_human EP300, Q09472, sequence (Q09472 whole entry): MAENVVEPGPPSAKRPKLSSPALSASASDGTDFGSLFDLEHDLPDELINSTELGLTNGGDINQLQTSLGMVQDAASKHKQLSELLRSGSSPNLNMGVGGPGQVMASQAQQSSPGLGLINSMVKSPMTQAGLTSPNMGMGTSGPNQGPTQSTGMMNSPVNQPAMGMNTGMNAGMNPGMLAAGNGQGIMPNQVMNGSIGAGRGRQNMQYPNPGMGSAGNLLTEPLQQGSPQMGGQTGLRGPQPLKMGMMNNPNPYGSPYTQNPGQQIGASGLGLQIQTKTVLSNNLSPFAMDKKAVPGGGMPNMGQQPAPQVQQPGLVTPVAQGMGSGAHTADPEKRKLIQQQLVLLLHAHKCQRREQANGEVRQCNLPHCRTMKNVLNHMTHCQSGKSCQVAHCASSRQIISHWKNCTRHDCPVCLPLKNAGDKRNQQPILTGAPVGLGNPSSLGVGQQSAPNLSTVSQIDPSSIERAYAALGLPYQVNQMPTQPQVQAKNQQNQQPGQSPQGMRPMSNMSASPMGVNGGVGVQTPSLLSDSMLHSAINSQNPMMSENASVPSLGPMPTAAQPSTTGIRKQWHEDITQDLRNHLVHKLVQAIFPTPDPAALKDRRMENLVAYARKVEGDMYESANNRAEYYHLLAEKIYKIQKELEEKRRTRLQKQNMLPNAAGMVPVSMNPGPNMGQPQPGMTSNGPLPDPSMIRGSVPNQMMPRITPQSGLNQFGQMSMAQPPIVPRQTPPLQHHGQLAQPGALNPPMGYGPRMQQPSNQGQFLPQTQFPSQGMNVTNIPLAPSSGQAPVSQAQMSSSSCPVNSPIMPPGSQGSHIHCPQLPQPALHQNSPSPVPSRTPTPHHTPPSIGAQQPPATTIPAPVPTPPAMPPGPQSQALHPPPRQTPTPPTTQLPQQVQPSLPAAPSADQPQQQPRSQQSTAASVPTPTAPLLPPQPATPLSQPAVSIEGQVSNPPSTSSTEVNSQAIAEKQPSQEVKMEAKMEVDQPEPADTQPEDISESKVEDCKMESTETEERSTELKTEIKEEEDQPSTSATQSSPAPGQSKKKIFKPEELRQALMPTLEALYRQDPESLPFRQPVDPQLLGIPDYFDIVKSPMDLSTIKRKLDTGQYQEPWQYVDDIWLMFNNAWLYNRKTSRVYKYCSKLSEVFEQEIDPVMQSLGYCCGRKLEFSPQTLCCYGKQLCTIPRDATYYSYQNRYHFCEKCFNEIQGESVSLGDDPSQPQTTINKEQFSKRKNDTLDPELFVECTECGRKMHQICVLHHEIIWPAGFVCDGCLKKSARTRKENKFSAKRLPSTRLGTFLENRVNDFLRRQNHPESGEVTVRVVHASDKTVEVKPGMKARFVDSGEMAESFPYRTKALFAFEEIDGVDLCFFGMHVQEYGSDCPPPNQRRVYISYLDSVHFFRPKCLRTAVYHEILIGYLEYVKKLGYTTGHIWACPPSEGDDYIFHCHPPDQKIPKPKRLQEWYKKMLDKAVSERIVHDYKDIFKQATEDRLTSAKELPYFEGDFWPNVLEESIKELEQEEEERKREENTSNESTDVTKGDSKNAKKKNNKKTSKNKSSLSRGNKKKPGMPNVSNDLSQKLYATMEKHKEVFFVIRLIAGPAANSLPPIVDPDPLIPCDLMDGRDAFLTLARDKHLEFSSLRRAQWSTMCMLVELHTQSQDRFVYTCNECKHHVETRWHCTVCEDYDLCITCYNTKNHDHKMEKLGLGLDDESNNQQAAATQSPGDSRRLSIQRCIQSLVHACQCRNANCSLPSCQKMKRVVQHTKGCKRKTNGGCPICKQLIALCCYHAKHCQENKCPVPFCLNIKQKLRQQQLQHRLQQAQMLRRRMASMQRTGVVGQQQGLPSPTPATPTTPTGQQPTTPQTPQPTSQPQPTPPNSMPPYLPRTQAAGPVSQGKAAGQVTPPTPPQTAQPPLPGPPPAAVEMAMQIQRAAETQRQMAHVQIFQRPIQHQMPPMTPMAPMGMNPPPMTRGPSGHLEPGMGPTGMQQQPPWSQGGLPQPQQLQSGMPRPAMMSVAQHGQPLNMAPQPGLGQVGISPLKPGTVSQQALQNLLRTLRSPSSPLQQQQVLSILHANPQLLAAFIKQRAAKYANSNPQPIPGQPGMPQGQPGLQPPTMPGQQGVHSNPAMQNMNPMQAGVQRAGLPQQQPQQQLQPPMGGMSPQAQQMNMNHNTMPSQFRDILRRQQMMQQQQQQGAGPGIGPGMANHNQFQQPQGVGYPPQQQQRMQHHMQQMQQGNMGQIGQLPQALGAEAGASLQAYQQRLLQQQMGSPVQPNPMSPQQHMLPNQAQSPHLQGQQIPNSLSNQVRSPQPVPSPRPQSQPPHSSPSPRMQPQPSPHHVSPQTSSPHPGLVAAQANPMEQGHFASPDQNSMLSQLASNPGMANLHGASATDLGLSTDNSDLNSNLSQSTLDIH

Row | Variant | effect of a mutation on the interaction
1 | R2G | disrupting interaction

Variants of: B1
Details: with stat1_human STAT1, P42224
stat1_human STAT1, P42224, sequence (P42224 whole entry): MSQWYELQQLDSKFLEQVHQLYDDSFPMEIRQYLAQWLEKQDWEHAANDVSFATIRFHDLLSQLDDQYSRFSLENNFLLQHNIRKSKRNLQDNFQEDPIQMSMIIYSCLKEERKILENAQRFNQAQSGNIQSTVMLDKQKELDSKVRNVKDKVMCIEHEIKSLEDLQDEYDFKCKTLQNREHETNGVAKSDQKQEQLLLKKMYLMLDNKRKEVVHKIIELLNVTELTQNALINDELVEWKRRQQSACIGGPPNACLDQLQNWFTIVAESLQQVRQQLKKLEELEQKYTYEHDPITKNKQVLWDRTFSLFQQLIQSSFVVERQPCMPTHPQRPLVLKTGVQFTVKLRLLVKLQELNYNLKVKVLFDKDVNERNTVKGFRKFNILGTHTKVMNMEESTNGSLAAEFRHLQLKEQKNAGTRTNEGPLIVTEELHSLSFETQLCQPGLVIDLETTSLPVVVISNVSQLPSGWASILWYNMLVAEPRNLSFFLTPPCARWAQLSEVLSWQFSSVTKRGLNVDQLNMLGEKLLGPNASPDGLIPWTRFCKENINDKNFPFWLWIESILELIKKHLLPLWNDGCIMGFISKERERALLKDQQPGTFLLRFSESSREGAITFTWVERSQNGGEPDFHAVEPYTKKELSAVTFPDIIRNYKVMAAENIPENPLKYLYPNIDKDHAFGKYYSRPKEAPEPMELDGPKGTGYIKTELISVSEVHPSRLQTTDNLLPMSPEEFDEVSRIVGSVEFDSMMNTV

Row | Variant | effect of a mutation on the interaction
2 | R2G | decreasing interaction

Variants of: B2
Details: with rb_human RB1, P06400

Row | Variant | effect of a mutation on the interaction
3 | R2G | decreasing interaction
